Laboratory results: patent US9012420B2, “Aptamer for chymase, and use thereof” (Ribomic Inc., priority 2009, dated 2015)
Oligonucleotides are written 5' to 3', each unit as a sugar letter and its base; * is a phosphorothioate linkage, no mark a phosphodiester; rarer units and linkages stand in square brackets, end groups in braces. Plain capitals give the bases only. r = 2'-OH (RNA); f = 2'-fluoro

Columns and labels:
[1] = target: T1, chymase (recombinant) (UniProt P23946 P23946:22-247); assay: inhibition; SPR +; conditions: tags: SIGMA, expressed in yeast
T1 sequence: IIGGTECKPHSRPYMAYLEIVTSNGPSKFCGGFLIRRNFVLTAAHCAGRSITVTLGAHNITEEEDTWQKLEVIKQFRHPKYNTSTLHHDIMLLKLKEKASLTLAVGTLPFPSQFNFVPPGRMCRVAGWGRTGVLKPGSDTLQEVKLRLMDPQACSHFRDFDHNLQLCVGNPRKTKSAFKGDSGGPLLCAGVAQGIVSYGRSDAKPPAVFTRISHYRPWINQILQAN
Description: (§1) Here, Suc is a protecting succinyl group, and MCA is a 4-methylcoumaryl-7-amide group; upon cleavage of the C-terminal side of phenylalanine, AMC (7-amino-4-methyl-coumarine) is released. By detecting the fluorescence of this AMC, the enzyme activity of chymase can be determined. The assay was performed using a 96-well plate (F16 Black Maxisorp Fluoronunc, manufactured by Nunc), with a reaction mixture volume of 100 μL, in solution C as a buffer solution. First, each nucleic acid was serially diluted to 0.0027-2 μM concentrations in solution C to obtain 50 μL solutions. After 10 μL of the 1 mM substrate prepared in solution C was added thereto, the plate was set to the microplate reader SpectraMax190 (manufactured by Molecular Devices Corporation), and incubated at 37° C. for 5 minutes. Separately, 0.05 μg (or 0.005 μg) of chymase (recombinant, manufactured by SIGMA) was diluted in solution C to obtain a 40 μL chymase solution, and incubated at 37° C. for 5 minutes. The chymase solution was added to the mixture of the nucleic acid and substrate to initiate an enzyme reaction. The final chymase concentration in the reaction mixture was 16.7 nM (or 1.67 nM), the final substrate concentration being 100 μM. The plate containing the reaction mixture was set to the microplate reader SpectraMax190 (manufactured by Molecular Devices Corporation), and examined for time-dependent changes in the fluorescence intensity at 37° C. for 5 minutes (or 30 minutes) (excitation wavelength 380 nm, detection wavelength 460 nm). A linear approximation of the increase in the fluorescence of the AMC released from the substrate by chymase activity was generated, and its slope was taken as the initial velocity […]. For control, samples were treated and analyzed in the same manner in two cases: use of a 30N or 40N (a nucleotide of 30 or 40 consecutive bases represented by N; N is A, G, C or T) nucleic acid pool (negative control), and use of chymostatin, a known chymotrypsin-like serine protease inhibitor (positive control). Taking the initial reaction velocity without the nucleic acid and inhibitor (V_0) as a 100% enzyme activity, the inhibitory rate of each test substance was calculated using the following equation: […]

[2] = target: T2, chymase (Homo sapiens, UniProt P23946 P23946:22-247); assay: SPR; stronger than 40N; solution A; conditions: tags: human skin mast cell, Calbiochem
T2 sequence: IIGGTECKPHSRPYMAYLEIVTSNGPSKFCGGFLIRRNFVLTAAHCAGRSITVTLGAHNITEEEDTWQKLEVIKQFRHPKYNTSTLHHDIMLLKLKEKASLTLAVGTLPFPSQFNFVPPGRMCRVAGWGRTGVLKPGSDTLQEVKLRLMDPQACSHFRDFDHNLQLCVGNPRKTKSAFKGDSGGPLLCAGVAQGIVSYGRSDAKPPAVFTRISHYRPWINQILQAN
Description: (§2) The binding activities against chymase of the nucleic acids shown by SEQ ID NO: 4-20 and 22-34 were determined by the surface plasmon resonance method using Biacore T100 (manufactured by GE Healthcare). The sensor chip used was the SA chip, which had streptavidin immobilized thereon. Bound thereto was about 1500 RU of a 16-nucleotide Poly dT with biotin bound to the 5' end thereof. […] 20 μL of chymase for analyte, prepared at 0.2 μM, was injected. Solution A was used as a running buffer.

[3] = target: T1, chymase (recombinant); assay: inhibition; SPR ++; conditions: tags: SIGMA, expressed in yeast
Description: as §1, with “By” for “Here, Suc is a protecting succinyl group, and MCA is a 4-methylcoumaryl-7-amide group; upon cleavage of the C-terminal side of phenylalanine, AMC (7-amino-4-methyl-coumarine) is released. By”
All nucleic acids of SEQ ID NO: 58-68 were prepared by chemical synthesis. Whether these nucleic acids are bound to chymase was assessed by surface plasmon resonance method in the same manner as in Example 4. The inhibitory activity on chymase was measured in the same manner as in Example 3.

[4] = target: T1, chymase (recombinant); assay: inhibition; SPR ++; conditions: tags: SIGMA, expressed in yeast; remark: listed apart in the source
Description: as §1
Chymase inhibitory activity was determined in the same manner as Example 3.

[5] = target: T3, chymase (Homo sapiens, UniProt P23946); assay: Surface plasmon resonance (Biacore T100), aptamer immobilized on SA chip, chymase injected as analyte; format: binding; conditions: Table 1; about 1000 RU nucleic acid immobilized, chymase 0.2 μM analyte, running buffer solution A; compared with 40N
T3 sequence (P23946 22-247): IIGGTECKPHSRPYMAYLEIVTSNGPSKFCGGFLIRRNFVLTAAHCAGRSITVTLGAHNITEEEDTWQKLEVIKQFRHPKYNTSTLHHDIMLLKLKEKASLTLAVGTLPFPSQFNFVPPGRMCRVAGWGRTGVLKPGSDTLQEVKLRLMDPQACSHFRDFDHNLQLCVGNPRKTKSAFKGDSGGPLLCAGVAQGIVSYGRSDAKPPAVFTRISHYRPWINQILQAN
Description: Binding strength is measured using Biacore T100 (manufactured by GE Healthcare). In a method of measurement, the aptamer is first immobilized onto a sensor chip, the amount immobilized being about 1000 RU. 20 μL of a chymase solution for analyte, prepared at 0.2 μM, is injected, and the binding of chymase to the aptamer is detected. An RNA comprising a random nucleotide sequence of 30 or 40 nucleotides is used as a negative control.
as §2, with “5′” for “5'”
The binding activities against chymase of the nucleic acids shown by SEQ ID NO: 38-48 were evaluated by the surface plasmon resonance method. In the evaluations for SEQ ID NO: 38-48, measurements were taken in the same manner as Example 1. Solution C was used as a running buffer.

B1: SEQ 22 (ssRNA)
RNA: GGGACGGUAGGAAUUCCCGACACAAAAUGUGUGAUUAAUUCCGAACAACAAAGUAACAUAGAAGAGCGGCCGC
modifications: 2'-F pyrimidines
Work on B1 yielded an IC50 [1] of 105 nM.

B2: SEQ 16 (ssRNA)
RNA: GGGACGGUAGGAAUUCCCAUGACUGAAAAACGUCAGUAAAAUCCGAAAAUCAUAUCAUAGAAGAGCGGCCGC
modifications: 2'-F U and C
B2: binds [2].

B3: SEQ 34 (ssRNA)
RNA: GGGACGGUAGGAAUUCUGCCGCAACCCAAUGAAAACGAAGAUAGAGAUAAAUCGAACAUAGAAGAGCGGCCGC
modifications: 2'-F pyrimidines
B3 showed an IC50 [1] of 137 nM.

B4: SEQ 31 (ssRNA)
RNA: GGGACGGUAGGAAUUCGUCCCUCAUGUCUAUUUUGCAGAUAGACUUAAAGCAAACAUAGAAGAGCGGCCGC
modifications: 2'-F pyrimidines
B4 gave an IC50 [1] of 155 nM.

GGGUUGGAUAGAGUUAAGAACCC (ssRNA, 2'-F pyrimidines) [SEQ 62] gave an IC50 [3] of 29 nM.

GCAUUUGAGAUAGAUUUAAACAAACGC (ssRNA, 2'-F pyrimidines) [SEQ 57] gave an IC50 [4] of 99 nM.

B5: GGGACGGUAGGAAUUCUGCCGCAACCCAAUGAAAACGAAGAUAGAGAUAAAUCGAACAUAGAAGAGCGGCCGC (nucleic acid)
chain: rGrGrGrAfCrGrGfUrArGrGrArAfUfUfCfUrGfCfCrGfCrArAfCfCfCrArAfUrGrArArArAfCrGrArArGrAfUrArGrArGrAfUrArArAfUfCrGrArAfCrAfUrArGrArArGrArGfCrGrGfCfCrGfC
modifications: aptamer
For B5, the “Binding activity as determined using Biacore” value [5] was “equivalent binding activity compared with 40N”.

B6: SEQ 20 (ssRNA)
RNA: GGGACGGUAGGAAUUCAAAAUCAGCUGAUUUGUAAUUUUUUUACACAGGCAAAACACAUAGAAGAGCGGCCGC
modifications: 2'-F pyrimidines
For B6, the IC50 [1] was 282 nM.

B7: SEQ 7 (ssRNA)
RNA: GGGACGGUAGGAAUUCACCUUUCCAAUUGUGAAAGAAACACAAAAAGAAAUGACAUCAUAGAAGAGCGGCCGC
modifications: 2'-F U and C
B7: binds [2].

For CGUUACAUAAUGUAUAUACCAGGGUAACUAAACAUAGAAGAGCGG (ssRNA, 2'-F pyrimidines) [SEQ 51], the IC50 [4] was 24 nM.

B8: SEQ 27 (ssRNA)
RNA: GGGACGGUAGGAAUUCCGUCAUCGGUUGCAAAUUGAAAAUACAAAACAAGGACAACCAUAGAAGAGCGGCCGC
modifications: 2'-F U and C
B8: binds [2].

In the case of GGCAGAUAGAGUUAAAGCC (ssRNA, 2'-F pyrimidines) [SEQ 65], the IC50 [3] is reported as 56 nM.

GGUUCUACAGAUAGAGAUAAAGUAGAACC (ssRNA, 2'-F pyrimidines) [SEQ 49] gave an IC50 [4] of 117 nM.

With GGGUUAGAUAGAGAUAAAAACCC (ssRNA, 2'-F pyrimidines) [SEQ 59] the IC50 [3] was 38 nM.

GGGUUAGAUAGAUUUAAAAACCC (ssRNA, 2'-F pyrimidines) [SEQ 61] was tested, and the IC50 [3] was 23 nM.

GGCAUUCUACAGAUAGAGAUAAAGUAGAAUUUAAC (ssRNA, 2'-F pyrimidines) [SEQ 50] was tested, and the IC50 [4] was 138 nM.

CUAUGGUUAGAUAGAGUUAAAAACCAUAG (ssRNA, 2'-F pyrimidines) [SEQ 55] was tested, and the IC50 [4] was 55 nM.

B9: SEQ 29 (ssRNA)
RNA: GGGACGGUAGGAAUUCACGACCGCCCAAAAAAUGGUGACAUUUUAGAAACACCGAACAUAGAAGAGCGGCCGC
modifications: 2'-F U and C
B9: binds [2].

GGGUUAGAUAGAGCUAAAAACCC (ssRNA, 2'-F pyrimidines) [SEQ 60] gave an IC50 [3] of 26 nM.

With GUCACAGAUAGAGUUAAAGUGAC (ssRNA, 2'-F pyrimidines) [SEQ 64] the IC50 [3] was 20 nM.

B10: SEQ 33 (ssRNA)
RNA: GGGACGGUAGGAAUUCCUGUCUUUUCCCACGCAACAAAUUACAGAGCUUUGCAAAACAUAGAAGAGCGGCCGC
modifications: 2'-F pyrimidines
For B10, the IC50 [1] was 145 nM.

UAACUAUGGUUAGAUAGAGUUAAAAACCAUAGAAGA (ssRNA, 2'-F pyrimidines) [SEQ 54] showed an IC50 [4] of 51 nM.

Work on GGGUAACUAUGGUUAGAUAGAGUUAAAAACCAUAGAAGACCC (ssRNA, 2'-F pyrimidines) [SEQ 53] yielded an IC50 [4] of 66 nM.

For GCUACAGAUAGAGUUAAAGUAGC (ssRNA, 2'-F pyrimidines) [SEQ 63], the IC50 [3] was 23 nM.

B11: SEQ 32 (ssRNA)
RNA: GGGACGGUAGGAAUUCGUCCUCAUGUCUAUUUUGCAGAUAGACUUAAAGCAAACAUAGAAGAGCGGCCGC
modifications: 2'-F pyrimidines
In the case of B11, the IC50 [1] is reported as 235 nM.

B12: SEQ 28 (ssRNA)
RNA: GGGACGGUAGGAAUUCAAUUUCUUUCUAUUCUCACCUGAGUAUAUCAGGCACAGUACAUAGAAGAGCGGCCGC
modifications: 2'-F pyrimidines
Molecule B12 has an IC50 [1] of 45 nM.
